Data on twelve molecules can be found in PMC6350941 (Cell reports, 2019).

Like-named read-outs stand apart in the source and are kept apart here.

The target in series [1] is T1, FANCI (human);FANCD2 (human) (human;human, UniProt Q9NVI1;Q9BXW9 1-1328;1-1451, |). The experiment in a line: EMSA.
A further series has as its target FANCD2 (chicken) (chicken, UniProt Q68Y81 1-1439). The experiment in a line: EMSA.
The target of another series is FANCI (human) (human, UniProt Q9NVI1 1-1328). Nature of the series: EMSA.
Chain of FANCI (human) (Q9NVI1 whole entry): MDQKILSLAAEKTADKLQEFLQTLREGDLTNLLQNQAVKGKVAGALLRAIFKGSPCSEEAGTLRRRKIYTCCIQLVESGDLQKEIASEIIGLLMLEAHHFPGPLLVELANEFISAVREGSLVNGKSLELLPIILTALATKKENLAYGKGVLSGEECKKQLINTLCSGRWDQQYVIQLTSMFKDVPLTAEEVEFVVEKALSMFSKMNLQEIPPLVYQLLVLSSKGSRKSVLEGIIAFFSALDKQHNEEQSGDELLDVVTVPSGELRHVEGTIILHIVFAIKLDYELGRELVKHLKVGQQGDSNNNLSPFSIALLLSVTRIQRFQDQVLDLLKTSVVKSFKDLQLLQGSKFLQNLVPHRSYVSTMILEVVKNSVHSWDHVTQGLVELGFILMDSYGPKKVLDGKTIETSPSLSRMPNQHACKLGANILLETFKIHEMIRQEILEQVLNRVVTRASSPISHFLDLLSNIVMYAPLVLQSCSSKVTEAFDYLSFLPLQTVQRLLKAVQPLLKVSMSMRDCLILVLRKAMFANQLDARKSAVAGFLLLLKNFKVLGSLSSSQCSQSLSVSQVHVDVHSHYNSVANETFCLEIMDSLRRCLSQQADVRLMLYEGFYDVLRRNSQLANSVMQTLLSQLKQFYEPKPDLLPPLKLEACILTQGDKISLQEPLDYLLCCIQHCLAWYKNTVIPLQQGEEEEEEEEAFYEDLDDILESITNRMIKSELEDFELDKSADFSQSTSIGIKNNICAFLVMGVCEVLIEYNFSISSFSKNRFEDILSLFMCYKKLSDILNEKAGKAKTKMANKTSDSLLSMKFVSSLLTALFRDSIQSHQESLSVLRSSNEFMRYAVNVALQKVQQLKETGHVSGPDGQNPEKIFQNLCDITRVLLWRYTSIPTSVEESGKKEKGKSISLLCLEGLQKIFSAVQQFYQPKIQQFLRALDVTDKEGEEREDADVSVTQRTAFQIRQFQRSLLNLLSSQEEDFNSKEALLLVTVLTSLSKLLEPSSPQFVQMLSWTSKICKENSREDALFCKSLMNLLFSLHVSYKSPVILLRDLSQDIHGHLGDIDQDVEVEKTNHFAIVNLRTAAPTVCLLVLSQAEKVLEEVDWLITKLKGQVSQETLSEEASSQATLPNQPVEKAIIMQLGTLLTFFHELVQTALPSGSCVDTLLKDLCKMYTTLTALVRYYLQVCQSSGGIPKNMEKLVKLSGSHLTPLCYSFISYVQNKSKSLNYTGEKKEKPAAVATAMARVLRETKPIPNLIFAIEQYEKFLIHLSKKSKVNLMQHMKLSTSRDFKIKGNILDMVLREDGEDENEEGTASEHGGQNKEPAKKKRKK
Another series deals with T2, FANCI (chicken) (chicken, UniProt B0I564 1-1338).
T2 sequence: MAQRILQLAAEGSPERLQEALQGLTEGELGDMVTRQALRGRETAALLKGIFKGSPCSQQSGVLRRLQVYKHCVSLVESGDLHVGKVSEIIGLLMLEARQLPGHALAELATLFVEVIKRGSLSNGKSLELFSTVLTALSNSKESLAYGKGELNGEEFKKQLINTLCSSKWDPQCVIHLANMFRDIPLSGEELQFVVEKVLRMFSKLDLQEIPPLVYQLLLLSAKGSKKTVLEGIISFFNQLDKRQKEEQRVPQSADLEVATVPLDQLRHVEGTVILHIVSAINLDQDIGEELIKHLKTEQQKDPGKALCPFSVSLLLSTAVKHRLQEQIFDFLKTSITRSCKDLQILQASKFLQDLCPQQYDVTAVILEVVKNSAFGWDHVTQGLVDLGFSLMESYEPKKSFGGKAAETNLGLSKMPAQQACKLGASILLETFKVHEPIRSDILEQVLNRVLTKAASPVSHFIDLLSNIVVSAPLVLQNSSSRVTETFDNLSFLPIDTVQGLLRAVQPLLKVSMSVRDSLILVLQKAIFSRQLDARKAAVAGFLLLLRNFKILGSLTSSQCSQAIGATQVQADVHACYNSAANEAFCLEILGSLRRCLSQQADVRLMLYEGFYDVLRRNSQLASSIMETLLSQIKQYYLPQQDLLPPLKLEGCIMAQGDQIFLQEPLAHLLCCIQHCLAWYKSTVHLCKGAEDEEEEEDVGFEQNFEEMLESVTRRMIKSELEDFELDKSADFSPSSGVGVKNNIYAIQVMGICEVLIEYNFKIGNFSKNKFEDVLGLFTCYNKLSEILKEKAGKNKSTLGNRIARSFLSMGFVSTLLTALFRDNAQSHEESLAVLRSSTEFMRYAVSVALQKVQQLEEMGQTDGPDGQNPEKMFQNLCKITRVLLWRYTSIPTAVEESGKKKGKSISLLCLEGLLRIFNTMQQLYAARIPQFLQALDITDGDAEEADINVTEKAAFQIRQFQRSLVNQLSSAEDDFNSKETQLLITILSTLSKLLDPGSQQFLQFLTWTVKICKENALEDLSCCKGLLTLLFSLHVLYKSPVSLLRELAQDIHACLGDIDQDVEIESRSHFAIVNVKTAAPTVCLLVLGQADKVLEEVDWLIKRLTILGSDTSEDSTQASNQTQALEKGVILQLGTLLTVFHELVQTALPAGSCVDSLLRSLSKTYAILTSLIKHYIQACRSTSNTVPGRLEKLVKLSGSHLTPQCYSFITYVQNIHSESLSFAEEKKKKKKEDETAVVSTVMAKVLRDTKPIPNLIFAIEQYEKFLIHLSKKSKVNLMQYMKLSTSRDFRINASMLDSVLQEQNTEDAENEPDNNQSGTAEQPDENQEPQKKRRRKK
Nature of the series: EMSA.

Series [2] addresses FANCI (chicken);FANCD2 (chicken) (chicken;chicken, UniProt B0I564;Q68Y81 1-1338;1-1439, |). The experiment in a line: EMSA.
Series [3] addresses T1, FANCI (human);FANCD2 (human). The experiment in a line: EMSA. This is another data set of the same source.
For series [4] the target is unchanged. Nature of the series: EMSA. This is another data set of the same source.
Series [5] shares this target. Nature of the series: EMSA. This is another data set of the same source.
For series [6] the target is unchanged. Nature of the series: EMSA. This is another data set of the same source.
Series [7] concerns the target chicken FANCD2 (His-tagged) (chicken, UniProt Q68Y81 1-1439). The experiment in a line: SEC.

Chain of FANCI (chicken);FANCD2 (chicken) (Q68Y81 whole entry, one chain of several): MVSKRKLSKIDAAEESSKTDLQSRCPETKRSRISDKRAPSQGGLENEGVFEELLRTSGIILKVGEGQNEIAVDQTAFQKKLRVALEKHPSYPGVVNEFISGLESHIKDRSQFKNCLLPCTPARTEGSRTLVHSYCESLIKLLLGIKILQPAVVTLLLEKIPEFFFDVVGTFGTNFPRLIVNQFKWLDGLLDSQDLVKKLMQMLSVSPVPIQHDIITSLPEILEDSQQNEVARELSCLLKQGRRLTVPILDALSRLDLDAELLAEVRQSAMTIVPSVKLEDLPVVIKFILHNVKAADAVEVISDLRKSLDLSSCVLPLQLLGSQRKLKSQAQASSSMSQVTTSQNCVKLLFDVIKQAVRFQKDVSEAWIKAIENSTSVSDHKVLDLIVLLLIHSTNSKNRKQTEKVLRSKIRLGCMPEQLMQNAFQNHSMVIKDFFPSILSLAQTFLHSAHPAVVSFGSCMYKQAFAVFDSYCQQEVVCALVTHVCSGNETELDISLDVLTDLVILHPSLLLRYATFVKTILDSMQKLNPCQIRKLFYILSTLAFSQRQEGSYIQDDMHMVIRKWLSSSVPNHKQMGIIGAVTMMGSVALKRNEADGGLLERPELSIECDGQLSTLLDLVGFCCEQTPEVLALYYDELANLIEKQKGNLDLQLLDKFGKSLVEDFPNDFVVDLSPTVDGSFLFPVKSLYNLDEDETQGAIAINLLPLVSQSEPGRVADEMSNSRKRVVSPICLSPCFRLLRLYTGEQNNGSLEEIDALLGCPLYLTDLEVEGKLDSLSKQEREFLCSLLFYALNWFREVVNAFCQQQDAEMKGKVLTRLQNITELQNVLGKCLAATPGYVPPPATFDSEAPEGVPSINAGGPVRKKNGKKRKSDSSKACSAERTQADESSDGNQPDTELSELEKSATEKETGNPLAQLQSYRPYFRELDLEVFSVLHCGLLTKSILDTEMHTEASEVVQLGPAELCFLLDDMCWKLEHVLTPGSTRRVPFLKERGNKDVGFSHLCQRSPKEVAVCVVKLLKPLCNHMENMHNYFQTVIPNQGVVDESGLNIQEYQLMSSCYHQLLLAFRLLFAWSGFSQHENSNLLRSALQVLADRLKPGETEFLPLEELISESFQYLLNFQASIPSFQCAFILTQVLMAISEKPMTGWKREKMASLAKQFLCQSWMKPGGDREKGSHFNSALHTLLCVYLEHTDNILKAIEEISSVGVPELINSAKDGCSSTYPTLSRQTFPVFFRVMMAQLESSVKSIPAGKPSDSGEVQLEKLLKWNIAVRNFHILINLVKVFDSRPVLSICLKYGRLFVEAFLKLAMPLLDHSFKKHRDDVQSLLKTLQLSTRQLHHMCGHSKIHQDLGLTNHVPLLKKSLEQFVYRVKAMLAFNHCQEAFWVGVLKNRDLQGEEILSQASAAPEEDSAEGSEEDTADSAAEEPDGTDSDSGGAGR
Chain of FANCD2 (chicken) (Q68Y81 whole entry): as the sequence (Q68Y81 whole entry, one chain of several) above
T1 sequence (Q9NVI1 whole entry, chain 1 of 2): as the sequence (Q9NVI1 whole entry) above
T1 sequence (Q9BXW9 whole entry, chain 2 of 2): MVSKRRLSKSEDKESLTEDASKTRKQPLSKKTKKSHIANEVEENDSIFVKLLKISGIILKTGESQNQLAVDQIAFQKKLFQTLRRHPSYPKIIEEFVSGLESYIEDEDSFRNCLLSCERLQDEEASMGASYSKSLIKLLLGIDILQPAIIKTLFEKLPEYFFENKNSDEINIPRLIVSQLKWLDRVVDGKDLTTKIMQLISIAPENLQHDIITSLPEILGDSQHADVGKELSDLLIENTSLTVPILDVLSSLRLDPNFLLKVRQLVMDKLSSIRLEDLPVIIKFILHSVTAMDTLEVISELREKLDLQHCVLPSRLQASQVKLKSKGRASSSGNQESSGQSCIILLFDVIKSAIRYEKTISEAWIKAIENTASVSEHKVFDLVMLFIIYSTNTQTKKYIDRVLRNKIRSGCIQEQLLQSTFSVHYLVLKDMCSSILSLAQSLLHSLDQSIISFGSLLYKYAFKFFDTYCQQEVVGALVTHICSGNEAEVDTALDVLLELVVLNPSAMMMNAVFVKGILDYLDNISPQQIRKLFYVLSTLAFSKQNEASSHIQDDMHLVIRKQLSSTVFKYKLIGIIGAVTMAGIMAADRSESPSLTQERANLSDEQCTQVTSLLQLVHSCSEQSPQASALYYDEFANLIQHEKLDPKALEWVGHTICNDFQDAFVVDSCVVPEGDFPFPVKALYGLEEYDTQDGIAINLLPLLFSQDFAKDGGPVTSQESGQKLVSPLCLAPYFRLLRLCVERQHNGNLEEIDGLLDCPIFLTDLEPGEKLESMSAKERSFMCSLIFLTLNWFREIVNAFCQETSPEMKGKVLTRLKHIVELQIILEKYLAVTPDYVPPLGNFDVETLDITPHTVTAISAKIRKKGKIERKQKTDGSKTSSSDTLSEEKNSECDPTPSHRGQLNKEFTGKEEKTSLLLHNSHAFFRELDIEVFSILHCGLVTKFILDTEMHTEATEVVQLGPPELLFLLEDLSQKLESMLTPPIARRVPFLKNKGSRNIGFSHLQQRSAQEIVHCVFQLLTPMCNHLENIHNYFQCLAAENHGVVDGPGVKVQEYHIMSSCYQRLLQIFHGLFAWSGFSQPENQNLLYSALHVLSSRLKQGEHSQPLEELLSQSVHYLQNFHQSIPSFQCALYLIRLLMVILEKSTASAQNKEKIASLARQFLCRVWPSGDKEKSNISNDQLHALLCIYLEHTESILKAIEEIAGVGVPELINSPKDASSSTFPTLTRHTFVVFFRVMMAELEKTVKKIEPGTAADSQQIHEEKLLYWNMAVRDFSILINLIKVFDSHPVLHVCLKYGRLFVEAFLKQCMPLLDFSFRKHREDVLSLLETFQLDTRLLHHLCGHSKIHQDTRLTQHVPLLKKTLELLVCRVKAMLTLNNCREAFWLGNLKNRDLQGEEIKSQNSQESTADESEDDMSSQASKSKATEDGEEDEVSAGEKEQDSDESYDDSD
Chain of chicken FANCD2 (His-tagged) (Q68Y81 whole entry): as the sequence (Q68Y81 whole entry, one chain of several) above

B1: ssDNA / ssDNA(G28) (ssDNA)
DNA: TGATAAGAGGTCATTTGAATTCATGGCTTAGAGCTTAATTGCTGAATCTGGTGCTGGGAT
For the molecule B1, the binding result in series [1] was “binds”.

B2: RNA:DNA hybrid (DNA:RNA)
DNA: TGATAAGAGGTCATTTGAATTCATGGCTTAGAGCTTAATTGCTGAATCTGGTGCTGGGAT
RNA: AUCCCAGCACCAGAUUCAGCAAUUAAGCUCUAAGCCAUGAAUUCAAAUGACCUCUUAUCA
As to B2, the binding result (in the series with FANCD2 (chicken); with FANCI (human); in the series with FANCI (chicken); in [2]) was “binds” each time.

B3: dsDNA / dsDNA(G28) (dsDNA)
DNA 1: TGATAAGAGGTCATTTGAATTCATGGCTTAGAGCTTAATTGCTGAATCTGGTGCTGGGAT
DNA 2: ATCCCAGCACCAGATTCAGCAATTAAGCTCTAAGCCATGAATTCAAATGACCTCTTATCA
As to B3, the binding result in [1] is recorded as “binds”.

B4: ssRNA(G48) (ssRNA)
RNA: GGAUGAGAGGGCAUGUGAGUGCGUGGCUGAGAGCGGGAUUGCUGAGUCUGGUGCUGGGAU
Regarding B4, the binding result in series [1] is on record as “binds”.

B5: ssRNA / ssRNA(G28) (ssRNA)
RNA: UGAUAAGAGGUCAUUUGAAUUCAUGGCUUAGAGCUUAAUUGCUGAAUCUGGUGCUGGGAU
Turning to B5, the binding result (with FANCD2 (chicken); with FANCI (human); in series [1]; with FANCI (chicken); in [2]) was “binds” throughout.

B6: dsRNA / dsRNA(G28) (dsRNA)
RNA 1: UGAUAAGAGGUCAUUUGAAUUCAUGGCUUAGAGCUUAAUUGCUGAAUCUGGUGCUGGGAU
RNA 2: AUCCCAGCACCAGAUUCAGCAAUUAAGCUCUAAGCCAUGAAUUCAAAUGACCUCUUAUCA
Turning to B6, the binding result (with FANCD2 (chicken); in the series with FANCI (human); with FANCI (chicken); in [2]) was “binds” in each case.

B7: ssDNA(G48) (ssDNA)
DNA: GGATGAGAGGGCATGTGAGTGCGTGGCTGAGAGCGGGATTGCTGAGTCTGGTGCTGGGAT
For B7, the binding result in [1] was “binds”.

B8: R-loop(G45) = R-loop(GGC) (mixed)
DNA 1: CATTGCATATTTAAAACATGTTGGAGTGAGTGCGTGGCTGAGATCGGGATTGCTGAGTCTGGTGCTTCAAATGACCTCTTATCAAGTGAC
RNA: CGUGGUCUGAGUCGUUAGGGCUAGAGUCGGUGCGUGAGUG
DNA 2: GTCACTTGATAAGAGGTCATTTGAACACTCACGCACCGACTCTAGCCCTAACGACTCAGACCACGTCCAACATGTTTTAAATATGCAATG
As for B8, the binding result in [3] was “binds”.

B9: R-loop(G30_G-quad) (mixed)
DNA 1: CATTGCATATTTAAAACATGTTGGATTTAATTCAGGGCTTAGGGCTTGGGTACTGGGTCTAATACTTCAAATGACCTCTTATCAAGTGAC
RNA: CGUGGUCUGAGUCGUUAGGGCUAGAGUCGGUGCGUGAGUG
DNA 2: GTCACTTGATAAGAGGTCATTTGAACACTCACGCACCGACTCTAGCCCTAACGACTCAGACCACGTCCAACATGTTTTAAATATGCAATG
Consider B9, for which the binding result in series [4] was “binds”.

B10: R-loop(GAT) (mixed)
DNA 1: CATTGCATATTTAAAACATGTTGGAGTGAGTGCGTGGCTGAGATCGGGATTGCTGAGTCTGGTGCTTCAAATGACCTCTTATCAAGTGAC
RNA: AAAAAAAUAAAAAAAUAAAAAAAAUAAAAAAAUAAAAAAA
DNA 2: GTCACTTGATAAGAGGTCATTTGAATTTTTTTATTTTTTTATTTTTTTTATTTTTTTATTTTTTTTCCAACATGTTTTAAATATGCAATG
Take B10: in series [5], the binding result was “binds”.

B11: D-loop(GGC) (structured_DNA)
DNA 1: CATTGCATATTTAAAACATGTTGGAGTGAGTGCGTGGCTGAGATCGGGATTGCTGAGTCTGGTGCTTCAAATGACCTCTTATCAAGTGAC
DNA 2: CGTGGTCTGAGTCGTTAGGGCTAGAGTCGGTGCGTGAGTG
DNA 3: GTCACTTGATAAGAGGTCATTTGAACACTCACGCACCGACTCTAGCCCTAACGACTCAGACCACGTCCAACATGTTTTAAATATGCAATG
On to B11, for which, in series [6], the binding result is “binds”.

B12: chicken FANCI (His-tagged) (natural protein, UniProt B0I564 1-1338, looked up)
chain: MAQRILQLAAEGSPERLQEALQGLTEGELGDMVTRQALRGRETAALLKGIFKGSPCSQQSGVLRRLQVYKHCVSLVESGDLHVGKVSEIIGLLMLEARQLPGHALAELATLFVEVIKRGSLSNGKSLELFSTVLTALSNSKESLAYGKGELNGEEFKKQLINTLCSSKWDPQCVIHLANMFRDIPLSGEELQFVVEKVLRMFSKLDLQEIPPLVYQLLLLSAKGSKKTVLEGIISFFNQLDKRQKEEQRVPQSADLEVATVPLDQLRHVEGTVILHIVSAINLDQDIGEELIKHLKTEQQKDPGKALCPFSVSLLLSTAVKHRLQEQIFDFLKTSITRSCKDLQILQASKFLQDLCPQQYDVTAVILEVVKNSAFGWDHVTQGLVDLGFSLMESYEPKKSFGGKAAETNLGLSKMPAQQACKLGASILLETFKVHEPIRSDILEQVLNRVLTKAASPVSHFIDLLSNIVVSAPLVLQNSSSRVTETFDNLSFLPIDTVQGLLRAVQPLLKVSMSVRDSLILVLQKAIFSRQLDARKAAVAGFLLLLRNFKILGSLTSSQCSQAIGATQVQADVHACYNSAANEAFCLEILGSLRRCLSQQADVRLMLYEGFYDVLRRNSQLASSIMETLLSQIKQYYLPQQDLLPPLKLEGCIMAQGDQIFLQEPLAHLLCCIQHCLAWYKSTVHLCKGAEDEEEEEDVGFEQNFEEMLESVTRRMIKSELEDFELDKSADFSPSSGVGVKNNIYAIQVMGICEVLIEYNFKIGNFSKNKFEDVLGLFTCYNKLSEILKEKAGKNKSTLGNRIARSFLSMGFVSTLLTALFRDNAQSHEESLAVLRSSTEFMRYAVSVALQKVQQLEEMGQTDGPDGQNPEKMFQNLCKITRVLLWRYTSIPTAVEESGKKKGKSISLLCLEGLLRIFNTMQQLYAARIPQFLQALDITDGDAEEADINVTEKAAFQIRQFQRSLVNQLSSAEDDFNSKETQLLITILSTLSKLLDPGSQQFLQFLTWTVKICKENALEDLSCCKGLLTLLFSLHVLYKSPVSLLRELAQDIHACLGDIDQDVEIESRSHFAIVNVKTAAPTVCLLVLGQADKVLEEVDWLIKRLTILGSDTSEDSTQASNQTQALEKGVILQLGTLLTVFHELVQTALPAGSCVDSLLRSLSKTYAILTSLIKHYIQACRSTSNTVPGRLEKLVKLSGSHLTPQCYSFITYVQNIHSESLSFAEEKKKKKKEDETAVVSTVMAKVLRDTKPIPNLIFAIEQYEKFLIHLSKKSKVNLMQYMKLSTSRDFRINASMLDSVLQEQNTEDAENEPDNNQSGTAEQPDENQEPQKKRRRKK
Consider B12, for which, in series [7], the binding result is “binds”.
